Assay results: article PMC8965080 (Frontiers in Microbiology, 2022)
Values belong to the molecule of their own block, whether it stands above or below them.

Legend:
[1] = molecular target: T1, Fdh3A (Thermococcus onnurineus, UniProt B6YU84); assay: formate-dependent methyl viologen reduction, absorbance at […] nm; assay type: biochemical; conditions: 100 mM sodium formate, 2 mM methyl viologen, 0.1 M Tris-HCl pH 8.5, 10% glycerol, 2 mM DTT; anaerobic; turnover only
T1 construct: gene TON_0539; Catalytic subunit alone; N-terminal 6xHis tag; expressed in T. onnurineus MF02 (parent 156T, fdh3 region deleted); one-step TALON IMAC
T1 sequence (B6YU84 1-680): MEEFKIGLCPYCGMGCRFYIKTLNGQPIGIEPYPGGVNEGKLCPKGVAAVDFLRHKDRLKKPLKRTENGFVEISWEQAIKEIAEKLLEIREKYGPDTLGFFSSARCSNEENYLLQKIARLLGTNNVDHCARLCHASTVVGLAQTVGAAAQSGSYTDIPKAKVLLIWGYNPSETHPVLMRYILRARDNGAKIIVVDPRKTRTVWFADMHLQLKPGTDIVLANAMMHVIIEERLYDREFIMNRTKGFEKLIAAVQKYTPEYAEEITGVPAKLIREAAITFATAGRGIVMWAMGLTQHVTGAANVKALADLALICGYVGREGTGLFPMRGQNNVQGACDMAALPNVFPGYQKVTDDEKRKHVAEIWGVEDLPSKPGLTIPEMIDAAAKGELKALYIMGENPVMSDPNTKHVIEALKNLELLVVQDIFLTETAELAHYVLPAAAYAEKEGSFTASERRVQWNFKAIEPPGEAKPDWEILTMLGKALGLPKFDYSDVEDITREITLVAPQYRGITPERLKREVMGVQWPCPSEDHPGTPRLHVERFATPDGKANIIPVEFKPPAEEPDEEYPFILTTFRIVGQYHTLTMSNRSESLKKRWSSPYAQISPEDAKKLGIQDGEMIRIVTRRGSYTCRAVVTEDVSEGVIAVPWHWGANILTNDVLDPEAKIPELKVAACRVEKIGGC

[2] = molecular target: Fdh3A, formate dehydrogenase large (catalytic) subunit (TON_0539) of Thermococcus onnurineus NA1, with N-terminal 6X-His tag (Thermococcus onnurineus NA1); assay: affinity purification with mass spectrometry; lysate of strain MF01 on TALON IMAC resin (N-terminal 6X-His on Fdh3A), eluted with 300 mM imidazole, then SEC on Superose 6 Increase 10/300 in buffer A (0.1 M Tris-HCl pH 8.0, 150 mM NaCl, 19 mM KCl, 10% glycerol); bands of the SDS-PAGE identified by MALDI mass spectrometry; anaerobic chamber
[3] = molecular target: Fdh3A, formate dehydrogenase large (catalytic) subunit (TON_0539) of Thermococcus onnurineus NA1, with N-terminal 6X-His tag (Thermococcus onnurineus NA1)
[4] = substrate: O=CO; assay: purified protein; conditions: NADP+ as electron acceptor (2 mM in the standard assay), 0.1 M Tris-HCl pH 8.5, 10% glycerol, 2 mM DTT, anaerobic, optimum 80 °C (temperature of Km assay not stated), catalytic site on Fdh3A (TON_0539)
[5] = substrate: NC(=O)c1ccc[n+]([C@@H]2O[C@H](COP(=O)(O)OP(=O)(O)OC[C@H]3O[C@@H](n4cnc5c(N)ncnc54)[C@H](OP(=O)(O)O)[C@@H]3O)[C@@H](O)[C@H]2O)c1; assay: purified protein; assay type: biochemical, Thermococcus onnurineus; conditions: co-substrate formate (100 mM in the standard assay), 0.1 M Tris-HCl pH 8.5, 10% glycerol, 2 mM DTT, anaerobic, optimum 80 °C (temperature of Km assay not stated), site on Fdh3B (TON_0542) by model

Molecule: O=CO [formate]
- formate-dependent methyl viologen reduction, absorbance at 578 nm [1]: The specific activities of formate-dependent methyl viologen reduction of Fdh3 and Fdh3A were similar

Molecule: C[n+]1ccc(-c2cc[n+](C)cc2)cc1 [methyl viologen]
- formate-dependent methyl viologen reduction, absorbance at 578 nm [1]: The specific activities of formate-dependent methyl viologen reduction of Fdh3 and Fdh3A were similar

- stoichiometry N [2]: 1
Molecule: Fdh3B, NAD(P)-binding protein (TON_0542) of Thermococcus onnurineus NA1 (natural protein)

- formate-dependent ferredoxin-reducing activity of Fdh3A alone (purified from strain MF02), based on the same methyl viologen activity [3]: 16.8 mU/U
- formate-dependent ferredoxin-reducing activity of the purified Fdh3 complex (Fdh3A with Fdh3B, Fdh3G1 and Fdh3G2), based on the same methyl viologen activity [3]: 17.9 mU/U
Molecule: ferredoxin Fd0317 (TON_0317) of Thermococcus onnurineus NA1 (from UniProt B6YTB5 1-67) (natural protein)

B1: Fdh3 (Thermococcus onnurineus NA1) (protein)
chain 1: MEEFKIGLCPYCGMGCRFYIKTLNGQPIGIEPYPGGVNEGKLCPKGVAAVDFLRHKDRLKKPLKRTENGFVEISWEQAIKEIAEKLLEIREKYGPDTLGFFSSARCSNEENYLLQKIARLLGTNNVDHCARLCHASTVVGLAQTVGAAAQSGSYTDIPKAKVLLIWGYNPSETHPVLMRYILRARDNGAKIIVVDPRKTRTVWFADMHLQLKPGTDIVLANAMMHVIIEERLYDREFIMNRTKGFEKLIAAVQKYTPEYAEEITGVPAKLIREAAITFATAGRGIVMWAMGLTQHVTGAANVKALADLALICGYVGREGTGLFPMRGQNNVQGACDMAALPNVFPGYQKVTDDEKRKHVAEIWGVEDLPSKPGLTIPEMIDAAAKGELKALYIMGENPVMSDPNTKHVIEALKNLELLVVQDIFLTETAELAHYVLPAAAYAEKEGSFTASERRVQWNFKAIEPPGEAKPDWEILTMLGKALGLPKFDYSDVEDITREITLVAPQYRGITPERLKREVMGVQWPCPSEDHPGTPRLHVERFATPDGKANIIPVEFKPPAEEPDEEYPFILTTFRIVGQYHTLTMSNRSESLKKRWSSPYAQISPEDAKKLGIQDGEMIRIVTRRGSYTCRAVVTEDVSEGVIAVPWHWGANILTNDVLDPEAKIPELKVAACRVEKIGGC
chain 2: MSGMRFAFLCRERPEPTGKKIAVIGAGPAGLAATGYLVCQGHEVHVYDKLPEPGGLMLFGIPEFRIPIYRVREGYEELERVYNVKFFTRTKVYFGNLEGESGDEFVENRVDFKELVEKYDAVLIATGTWKCWIPNIEGAELEGVFPALEYLFRIKSAKLGHMDWGKVTPVEGKKVLVVGAGHTAVDAALESVLLGADKVYLSYRRTIREAPAGAYEINLLQQRGVKWLERTMPVRIIGENGKVRAVELVKTKLSEPDESGRRRPVPIEGSNFQIDVDYVIFAVGQSPTPPFAEEIDIAVDKKGRIVVDNRHMTSREGVFAAGDVVLGPSKVGKAVKDGLYAAEAMHMWLMGR
notes: Tungsten-containing cytoplasmic complex; N-terminal 6xHis tag on TON_0539; overexpressed in T. onnurineus MF01 (fdh1 fdh2 fdh3 deleted), TALON IMAC and SEC; 524 kDa by SEC; TON_0541 not detected
- Km [4]: 13.5 mM
- Km [5]: 0.040 mM
